Columns and labels:
[1] = test system: MDA-MB-231 tumor xenografts; assay: Chorioallantoic membrane (CAM) xenograft assay, MDA-MB-231; format: in vivo, chick embryo; settings: NHE6^527-588-overexpressing MDA-MB-231 xenografts on CAM, 1 μM Dox
Description: (§1) Fertilized eggs from white leghorn chicken were obtained from Public Health Agency of Canada (Nepean, ON). Ethics approval was obtained from the Ethics Committee on Animal Research of the University of Sherbrooke and all experimental procedures involving embryos were conducted in accordance with the regulations of the Canadian Council on Animal Care. Eggs were incubated in an Ova-Easy egg incubator (Brinsea) at 37° C. with 60% humidity. At Day 3, eggs were cracked as described^67. At Day 9, HT-1080 and MDA-MB-231 cell suspensions (1×10^6 and 2×10^6 cells, respectively) were mixed (1:1) with growth factor reduced Matrigel (BD Biosciences) in a total volume of 20 μl. Cell grafts were placed on top of the CAM and eggs were returned to the incubator for 96 h until Day 13 (n>6 chick embryos per cell line). When mentioned, 50 μl of Dox were added topically to the formed tumors (Day 13 after tumor cell grafting). At Day 16, chick embryos were euthanatized by decapitation. Tumors were removed and tumor volumes were calculated using the formula: (Dd^2/3). For RNA quantification, tumors were immediately snap-frozen in liquid nitrogen and kept at −80° C. until RNA extraction using the Trizol reagent.
(§2) To determine whether these observations were of relevance to tumor therapy in vivo, the inventors used an ex ovo chorioallantoic membrane (CAM) xenograft model in live chicken embryos^40. MDA-MB-231 or HT-1080 cells, or cells expressing either the NHE6^527-588 competing fragment or its scrambled counterpart were inoculated onto the CAM of 9-day-old chick embryos. After allowing 3 days for cells to engraft, tumors were treated with Doxorubicin or PBS. Four days later, chick embryos were euthanized, and tumors were removed for analysis (FIG. 10A). To first ascertain that tumors implanted in CAM developed hypoxia, total mRNA was extracted from tumors generated by untransfected HT-1080 cells and gene expression of the hypoxic markers CA9, GLUT1 and MCT4 was measured by qPCR. […]

HT-1080 cells [2] = assay: Intracellular pH measurement (HPTS/SNARF-1) by confocal microscopy, HT-1080; format: cell-based, human; settings: HT-1080, expression of the peptide, 1% O2, 4 h
Description: The pH sensing ratiometric dyes SNARF-1 and HPTS (Life Technologies) were used simultaneously for pH measurement of both cytoplasmic (C-SNARF-1) and endosomal/lysosomal (HPTS) compartments as previously described^30. Briefly, cells were cultured in 35 mm petri dishes (BD Biosciences) and used at 50% confluence. For endocytic labeling, cells were incubated overnight with HPTS (1 mM), washed, followed by a 20-min incubation with SNARF-1 (5 μM) to label the cytoplasmic compartment. Living cells were analyzed using an Olympus Fluoview™ FV1000 confocal microscope. Fluorescence emissions of both pH-sensing probes were recorded and subsequently analyzed as described^30.

[3] = test system: HT-1080 overexpressing NHE6^527-588 peptide; assay: MTT cell viability assay in HT-1080 expressing NHE6^527-588 or scrambled peptide; format: cell-based, human; settings: HT-1080, overexpression of the fragment
Description: peGFP-N3-NHE6 was generously provided by Hiroshi Kanazawa (Osaka University, Japan). pcDNA3-HA/NHE6 was constructed from peGFP-N3-NHE6. For this, the entire NHE6 coding sequence was excised with BamHI and EcoRI restriction enzymes and cloned in pcDNA3-HA vector. pcDNA3-HA/NHE6^527-588 was designed from pcDNA3-HA/NHE6 using the following primers: […]
HT-1080 cells were stably transfected with Polyethylenimine (PEI, MirusBio) and positive cells were selected with Geneticin™ (G418) at 400 μg/mL. In the case of MDA-MB-231 cells, plasmids were transfected using Lipofectamine™ 2000 ([…]) and G418 was added to cell cultures at a concentration of 2 mg/mL.
Cells (5×10^3) were cultured in 96-well plates and pre-incubated under 21% O2 or 1% O2 for 4 h following the addition of drugs for 72 h. Cell viability was measured using the 3-(4,5-dimethylthiazol-2-yl)-2,5-diphenyltetrazolium bromide (MTT) dye (Life Technologies) according to manufacturer's instructions. Because hypoxic conditions may affect the reduction of MTT to formazan, incubation of all cell cultures with MTT were performed under normoxic conditions. Each experiment was performed in triplicate and at least three independent experiments were performed. Log-scale dose-response data were plotted on a graph and a three-parameter non-linear regression was applied to determine IC50 values. For calculation of the IC50s, both normoxic and hypoxic drug-treated samples were normalized with their untreated counterpart.
The middle portion (position 527-588) of the NHE6 cytoplasmic tail has previously been reported to interact with RACK1^31. Stable HT-1080 cells expressing the NHE6^527-588 fragment or a scrambled counterpart were generated.

HT-1080 tumor xenografts = assay: Chorioallantoic membrane (CAM) xenograft assay, HT-1080; format: in vivo, chick embryo; settings: NHE6^527-588-overexpressing HT-1080 xenografts on CAM, 0.5 μM Dox
Description: as §1, §2

NHE6-RACK1 interaction = assay: Co-immunoprecipitation of NHE6 with RACK1 in HT-1080; format: cell-based, human; settings: HT-1080, ectopic expression of the sequence, 1% O2, 4 h
Description: Cells were lysed on ice in NP-40-containing buffer (50 mM Tris-HCl pH 8.0, 150 mM NaCl, 1% NP-40, 5 mM EDTA, phosphatase and protease inhibitors). Cell lysates were centrifuged at 13,000 rpm at 4° C. and protein concentration determined using the BCA protein assay (Thermo Fisher Scientific). After a pre-clearing step with protein A/G-agarose beads (GE Healthcare), protein complexes were immunoprecipitated overnight at 4° C. Samples were incubated in SDS-loading buffer for 30 minutes at room temperature to avoid transmembrane protein aggregates upon heating in a boiling water bath. Proteins were separated by SDS-PAGE electrophoresis, transferred to a PVDF membrane and immunoblotting was performed as described, using anti-NHE6 (1:1000), anti-NHE9 (1:1000) anti-RACK1 (1:2000), anti-tubulin (1:5000), anti-actin (1:5000) anti-HA (1:1000), anti-PKC (1:200), anti-phospho PKC substrate (1:1000), anti-LAMP2 (1:200), anti-P-glycoprotein (1:200) and HRP-conjugated secondary antibodies (1/10 000)^66.

HT-1080 cells [4] = assay: Intracellular localization of Dox by confocal live-cell imaging, HT-1080; format: cell-based, human; settings: HT-1080, expression of the peptide, 1% O2, 4 h
Description: Cells were cultured in 25 mm-diameter glass coverslips (Thermo Fisher Scientific) and incubated under various conditions (as indicated in the FIG. legends). Cells were then incubated for 2 h in a medium containing Dox (2 μM). After the incubation period, cells were washed to remove excess Dox and left in drug-free media for 10 min. […] Coverslips were mounted on glass slides and placed on a 37° C. warmed stage of an Olympus Fluoview™ FV1000 (Olympus, Tokyo, Japan) confocal laser scanning microscope. Dox was excited with a green helium neon laser (543 nm) and emitted fluorescence intensity was measured. Images were acquired on the same day, typically from 10-20 cells of similar size from each experimental condition, using identical instrument settings.

NHE6 = NHE6 localization (cell-surface biotinylation, EEA1 immunofluorescence) in HT-1080; format: cell-based, human; settings: HT-1080, expression of the peptide, 1% O2, 4 h
Description: Biotinylation steps were performed at […] Cells were grown on circular 15-mm diameter glass coverslips (Thermo Fisher Scientific) and incubated at 21% or 1% O2. Cells were then washed with PBS containing 1 mM CaCl2 and 0.5 mM MgCl2 (PBSCM) and incubated for 5 min with 0.3 mg/ml of EZ-Link Sulfo-NHS-SS-Biotin (Pierce) in PBSCM. Unreacted biotin was quenched using 100 mM glycine. Cells were fixed for 10 min at room temperature using 1% PFA in PBS. Prior to staining, cells were blocked with 5% of BSA for 1 h at room temperature. Biotinylated cells were stained with 5 μg/ml Streptavidin Texas Red (Invitrogen) for 1 h at 4° C. Coverslips were washed and mounted on a microscope slide using Vectashield mounting media (Vector labs).
Cultured cells were fixed with 1% PFA for 10 min at room temperature, permeabilized with saponin (0.05% in PBS) for 20 min, and blocked with 2% BSA in PBS for 30 min. Cells were then incubated with the appropriate primary and secondary antibodies as follows: anti-EEA1 (1/500), anti-Rab7 (1/500) and fluorophore-conjugated secondary antibodies (1/1000). Images were recorded using an Olympus Fluoview™ FV1000 confocal microscope using a 63× oil immersion objective.

B1: TKAESAWLFRMWYNFDHNYLKPLLTHSGPPLTTTLPACCGPIARCLTSPQAYENQEQLKDDD (protein)
chain: TKAESAWLFRMWYNFDHNYLKPLLTHSGPPLTTTLPACCGPIARCLTSPQAYENQEQLKDDD
notes: NHE6 cytoplasmic tail fragment 527-588, expressed in cells from a plasmid
[1]
  tumor volume compared to xenografts overexpressing a control peptide: small but significant decrease in tumor volume
HT-1080 cells [2]
  hypoxia-induced intravesicular hyperacidification: greatly impaired
[3]; hypoxia
  increase in drug (Dox) sensitivity: 2.8 fold
[3]; normoxic conditions
  sensitivity of the cells to Dox: did not change
HT-1080 tumor xenografts
  tumor volume compared to xenografts overexpressing a control peptide: small but significant decrease in tumor volume
NHE6-RACK1 interaction
  hypoxia-induced interaction of NHE6 with RACK1: prevented
HT-1080 cells [4]
  hypoxia-induced diminution in nuclear Dox and Dox accumulation within endosomes: greatly impaired
NHE6
  hypoxia-induced NHE6 relocalization from endosomes to the plasma membrane: greatly impaired

Reference: patent US10973840B2, “Methods of sensitizing tumor cells to weak base chemotherapeutic drugs” (SOCPRA SCIENCES SANTÉ ET HUMAINES S.E.C., priority 2017, dated 2021)
